In patent publication US20220340642A1 (Kyowa Kirin, published 2022):

T1: membrane-bound human TL1A (Met and FLAG tag at the N-terminus) on CHO-K1 cells (human, UniProt O95150 2-251)
T1 construct: also called TL1A/CHO
T1 sequence: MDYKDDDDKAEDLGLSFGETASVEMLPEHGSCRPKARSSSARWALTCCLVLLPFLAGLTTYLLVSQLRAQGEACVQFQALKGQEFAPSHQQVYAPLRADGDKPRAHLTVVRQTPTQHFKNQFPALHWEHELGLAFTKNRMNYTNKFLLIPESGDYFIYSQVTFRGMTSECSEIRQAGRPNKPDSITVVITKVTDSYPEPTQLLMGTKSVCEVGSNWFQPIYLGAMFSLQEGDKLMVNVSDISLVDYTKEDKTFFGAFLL

T2: Human His6 Fas Ligand/TNFSF6 (Cell Signaling Technology, Inc.) (human, UniProt P48023 133-281)
T2 construct: Bought; confirmed as a trimer by SEC-MALS; also called recombinant human His6 Fas Ligand; soluble human FasL trimer
T2 sequence: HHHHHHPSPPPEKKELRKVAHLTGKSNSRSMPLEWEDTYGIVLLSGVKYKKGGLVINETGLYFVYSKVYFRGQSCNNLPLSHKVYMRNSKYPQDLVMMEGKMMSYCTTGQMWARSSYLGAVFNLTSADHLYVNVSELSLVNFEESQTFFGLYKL


How the values were obtained:
[1] = target: T3, membrane-bound human LIGHT (human, UniProt O43557 1-240); assay: flow cytometry on expressing cells
T3 construct: whole, on cells; also called LIGHT/HEK293
T3 sequence (O43557 whole entry): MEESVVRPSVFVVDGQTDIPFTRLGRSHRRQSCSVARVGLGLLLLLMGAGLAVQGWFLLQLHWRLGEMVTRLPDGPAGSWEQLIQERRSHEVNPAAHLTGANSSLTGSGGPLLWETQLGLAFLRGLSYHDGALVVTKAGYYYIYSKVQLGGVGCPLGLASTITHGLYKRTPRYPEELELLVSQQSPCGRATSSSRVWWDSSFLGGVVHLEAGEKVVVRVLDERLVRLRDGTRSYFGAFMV
In short: (§1)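 Binding was measured by flow cytometry on HEK293 cells forced to express membrane-bound LIGHT and on cell lines expressing N-terminally Met/FLAG-tagged TL1A or FasL from a CMV-promoter pClpuro vector. Cells at 1×10⁵ cells/well received 1 or 10 μg/mL protein on ice for 1 hour. After washing, cells were stained on ice for 1 hour with LIVE/DEAD Fixable Aqua and R-phycoerythrin goat F(ab′)₂ anti-human IgG (10 ng/mL, 0.1 or 1 μg/mL). Fluorescence was read on a FACS Fortessa.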

[2] = target: T1, membrane-bound human TL1A (Met and FLAG …); assay: flow cytometry on expressing cells
In short: as §1

[3] = target: T2, Human His6 Fas Ligand/TNFSF6 (Cell …); assay: SPR, binder captured on Protein A chip
Description: The binding activity to human and cynomolgus monkey DcR3 ligand trimers were analyzed by the SPR method. BIAcore T-100 (GE Healthcare) was used for measurement of the binding activities to human LIGHT, cynomolgus monkey LIGHT, human TL1A and cynomolgus monkey TL1A, and BIAcore T-200 (GE Healthcare) was used for measurement of the binding activities to human FasL and cynomolgus monkey FasL. As the buffer, HBS-EP+Buffer was used.
Various DcR3 variants were injected into Series S Sensor Chip Protein A (GE Healthcare) at 10 μL/min for 30 seconds and captured. Meanwhile, the buffer containing no protein was injected into a reference flow cell. Thereafter, as an analyte, each human DcR3 ligand trimer or each cynomolgus monkey DcR3 ligand trimer diluted to 0.08 to 20 nmol/L was injected. A human LIGHT trimer, a human TL1A trimer or each cynomolgus monkey DcR3 ligand trimer was injected at the flow rate of 30 μL/min for 2 minutes to monitor the binding, and subsequently the buffer was injected for 5 minutes to monitor dissociation. A human FasL trimer was injected at 30 μL/min for 1 minute to monitor the binding, and subsequently the buffer was injected for 3 minutes to monitor dissociation. Then, 3 mol/L magnesium chloride was injected at 30 μL/min for 1 minute to perform a regeneration reaction.

| Binder | binding result [1] | binding result [2] | binding result [3] |
| --- | --- | --- | --- |
| chimera A-E57K_R58D-Fc (Eg1S LALAGANA) (Fc fusion) ETFPPKYLHYDEETSHQLLCDKCPPGTYLKQHCTAKWKTVCAPCPPRHYTQFWNYLKDCRYCNVLCGEREEEARACHATHNRACRCRTGFFAHAGFCLEHASCPPGAGVIAPGTPSQNTQCQPCPDGFFSNETSSKAPCRKHTNCSVFGLLLTQKGNATHDNICSGNSESTQKEPKSSDKTHTCPPCPAPEAAGAPSVFLFPPKPKDTLMISRTPEVTCVVVDVSHEDPEVKFNWYVDGVEVHNAKTKPREEQYNSTYRVVSVLTVLHQDWLNGKEYKCKVSNKALPAPIEKTISKAKGQPREPQVYTLPPSRDELTKNQVSLTCLVKGFYPSDIAVEWESNGQPENNYKTTPPVLDSDGSFFLYSKLTVDKSRWQQGNVFSCSVMHEALHAHYTQKSLSLSPGK | binds | binds | binds |
| chimera A-E57R-Fc (Eg1S LALAGANA) (Fc fusion) ETFPPKYLHYDEETSHQLLCDKCPPGTYLKQHCTAKWKTVCAPCPPRHYTQFWNYLRRCRYCNVLCGEREEEARACHATHNRACRCRTGFFAHAGFCLEHASCPPGAGVIAPGTPSQNTQCQPCPDGFFSNETSSKAPCRKHTNCSVFGLLLTQKGNATHDNICSGNSESTQKEPKSSDKTHTCPPCPAPEAAGAPSVFLFPPKPKDTLMISRTPEVTCVVVDVSHEDPEVKFNWYVDGVEVHNAKTKPREEQYNSTYRVVSVLTVLHQDWLNGKEYKCKVSNKALPAPIEKTISKAKGQPREPQVYTLPPSRDELTKNQVSLTCLVKGFYPSDIAVEWESNGQPENNYKTTPPVLDSDGSFFLYSKLTVDKSRWQQGNVFSCSVMHEALHAHYTQKSLSLSPGK | binds | binds | binds |
| chimera A-E57K_R58D-Fc (Eg1S YTE) (Fc fusion, also called 45-10-Fc (Eg1S YTE)) ETFPPKYLHYDEETSHQLLCDKCPPGTYLKQHCTAKWKTVCAPCPPRHYTQFWNYLKDCRYCNVLCGEREEEARACHATHNRACRCRTGFFAHAGFCLEHASCPPGAGVIAPGTPSQNTQCQPCPDGFFSNETSSKAPCRKHTNCSVFGLLLTQKGNATHDNICSGNSESTQKEPKSSDKTHTCPPCPAPELLGGPSVFLFPPKPKDTLYITREPEVTCVVVDVSHEDPEVKFNWYVDGVEVHNAKTKPREEQYNSTYRVVSVLTVLHQDWLNGKEYKCKVSNKALPAPIEKTISKAKGQPREPQVYTLPPSRDELTKNQVSLTCLVKGFYPSDIAVEWESNGQPENNYKTTPPVLDSDGSFFLYSKLTVDKSRWQQGNVFSCSVMHEALHNHYTQKSLSLSPGK | binds | binds | binds |

Further lines, results first:

| binding result [1] | binding result [2] | binding result [3] | Binder |
| --- | --- | --- | --- |
| binds | binds | binds | chimera A-E57R-Fc (Eg1S YTE) (Fc fusion) ETFPPKYLHYDEETSHQLLCDKCPPGTYLKQHCTAKWKTVCAPCPPRHYTQFWNYLRRCRYCNVLCGEREEEARACHATHNRACRCRTGFFAHAGFCLEHASCPPGAGVIAPGTPSQNTQCQPCPDGFFSNETSSKAPCRKHTNCSVFGLLLTQKGNATHDNICSGNSESTQKEPKSSDKTHTCPPCPAPELLGGPSVFLFPPKPKDTLYITREPEVTCVVVDVSHEDPEVKFNWYVDGVEVHNAKTKPREEQYNSTYRVVSVLTVLHQDWLNGKEYKCKVSNKALPAPIEKTISKAKGQPREPQVYTLPPSRDELTKNQVSLTCLVKGFYPSDIAVEWESNGQPENNYKTTPPVLDSDGSFFLYSKLTVDKSRWQQGNVFSCSVMHEALHNHYTQKSLSLSPGK |
| binds | binds | binds | chimera A-E57V-Fc (Eg1S LALAGANA) (Fc fusion) ETFPPKYLHYDEETSHQLLCDKCPPGTYLKQHCTAKWKTVCAPCPPRHYTQFWNYLVRCRYCNVLCGEREEEARACHATHNRACRCRTGFFAHAGFCLEHASCPPGAGVIAPGTPSQNTQCQPCPDGFFSNETSSKAPCRKHTNCSVFGLLLTQKGNATHDNICSGNSESTQKEPKSSDKTHTCPPCPAPEAAGAPSVFLFPPKPKDTLMISRTPEVTCVVVDVSHEDPEVKFNWYVDGVEVHNAKTKPREEQYNSTYRVVSVLTVLHQDWLNGKEYKCKVSNKALPAPIEKTISKAKGQPREPQVYTLPPSRDELTKNQVSLTCLVKGFYPSDIAVEWESNGQPENNYKTTPPVLDSDGSFFLYSKLTVDKSRWQQGNVFSCSVMHEALHAHYTQKSLSLSPGK |
| binds | binds | binds | chimera A-E57V-Fc (Eg1S YTE) (Fc fusion) ETFPPKYLHYDEETSHQLLCDKCPPGTYLKQHCTAKWKTVCAPCPPRHYTQFWNYLVRCRYCNVLCGEREEEARACHATHNRACRCRTGFFAHAGFCLEHASCPPGAGVIAPGTPSQNTQCQPCPDGFFSNETSSKAPCRKHTNCSVFGLLLTQKGNATHDNICSGNSESTQKEPKSSDKTHTCPPCPAPELLGGPSVFLFPPKPKDTLYITREPEVTCVVVDVSHEDPEVKFNWYVDGVEVHNAKTKPREEQYNSTYRVVSVLTVLHQDWLNGKEYKCKVSNKALPAPIEKTISKAKGQPREPQVYTLPPSRDELTKNQVSLTCLVKGFYPSDIAVEWESNGQPENNYKTTPPVLDSDGSFFLYSKLTVDKSRWQQGNVFSCSVMHEALHNHYTQKSLSLSPGK |
